Measured values: the RNAGym collection of RNA variant scans (doi:10.7554/elife.80360)

B1: CPEB3 Ribozyme (parent)
chain: GGGGGCCACAGCAGAAGCGUUCACGUCGCGGCCCCUGUCAGAUUCUGGUGAAUCUGCGAAUUCUGCUGU

Variants of: B1
Assay: self-cleavage, relative activity (ratio to wild type); higher = more cleavage; co-transcriptional

Variant | self-cleavage
GGGGGCCACAGCAGAAGCGUUCACGUCGCGGCCCCUGUCAGAUUCGGGUGAAUCUGCGAAUUUUGCUGU | 1.03
GGGGGCCACAGCAGAAGCGUUCACGUCGCGGCCCCUGUCAGAUUCGGGUGAAUCUGCGAAUUCUGAUGU | 0.786
GGGGGCCACAGCAGAAGCGUUCACGUCGCGGCCCCUGUCAGAUUCGGGUGAAUCUGCGAAUUCUGGUGU | 0.956
GGGGGCCACAGCAGAAGCGUUCACGUCGCGGCCCCUGUCAGAUUCGGGUGAAUCUGCGAAUUCUGUUGU | 0.986
GGGGGCCACAGCAGAAGCGUUCACGUCGCGGCCCCUGUCAGAUUCGAGUGAAUCUGCGAAUUCUGCUGU | 1.02
GGGGGCCACAGCAGAAGCGUUCACGUCGCGGCCCCUGUCAGAUUCGCGUGAAUCUGCGAAUUCUGCUGU | 1.02
GGGGGCCACAGCAGAAGCGUUCACGUCGCGGCCCCUGUCAGAUUCGUGUGAAUCUGCGAAUUCUGCUGU | 0.976
GGGGGCCACAGCAGAAGCGUUCACGUCGCGGCCCCUGUCAGAUUCGGGUAAAUCUGCGAAUUCUGCUGU | 0.981
GGGGGCCACAGCAGAAGCGUUCACGUCGCGGCCCCUGUCAGAUUCGGGUUAAUCUGCGAAUUCUGCUGU | 0.962
GGGGGCCACAGCAGAAGCGUUCACGUCGCGGCCCCUGUCAGAUUCGGGUGAAUCUCCGAAUUCUGCUGU | 0.65
GGGGGCCACAGCAGAAGCGUUCACGUCGCGGCCCCUGUCAGAUUCGGGUGAAUCUUCGAAUUCUGCUGU | 0.959
GGGGGCCACAGCAGAAGCGUUCACGUCGCGGCCCCUGUCAGAUUCGGGUGAAUCUGCUAAUUCUGCUGU | 0.955
GGGGGCCACAGCAGAAGCGUUCACGUCGCGGCCCCUGUCAGAUUCGGGUGAAUCUGCGAAUUCUCCUGU | 0.681
GGGGGCCACAGCAGAAGCGUUCACGUCGCGGCCCCUGUCAGAUUCGGGUGAAUCUGCGAAUUCUGCUCU | 1.04
GGGGGCCACAGCAGAAGCGUUCACGUCGCGGCCCCUGUCAGAUUCGGGUGAAUCUGCGAAUUCUGCUUU | 0.971
GGGGGCCACAGCAGAAGCGUUCACGUCGCGGCCCCUGUCAGAUUCGGGAGAAUCUGCGAAUUCUGCUGU | 0.972
GGGGGCCACAGCAGAAGCGUUCACGUCGCGGCCCCUGUCAGAUUCGGGCGAAUCUGCGAAUUCUGCUGU | 1.04
GGGGGCCACAGCAGAAGCGUUCACGUCGCGGCCCCUGUCAGAUUCGGGUGAAACUGCGAAUUCUGCUGU | 1.01
GGGGGCCACAGCAGAAGCGUUCACGUCGCGGCCCCUGUCAGAUUCGGGUGAACCUGCGAAUUCUGCUGU | 0.978
GGGGGCCACAGCAGAAGCGUUCACGUCGCGGCCCCUGUCAGAUUCGGGUGAAGCUGCGAAUUCUGCUGU | 0.918
GGGGGCCACAGCAGAAGCGUUCACGUCGCGGCCCCUGUCAGAUUCGGGUGAAUCAGCGAAUUCUGCUGU | 0.899
GGGGGCCACAGCAGAAGCGUUCACGUCGCGGCCCCUGUCAGAUUCGGGUGAAUCCGCGAAUUCUGCUGU | 0.936
GGGGGCCACAGCAGAAGCGUUCACGUCGCGGCCCCUGUCAGAUUCGGGUGAAUCGGCGAAUUCUGCUGU | 0.83
GGGGGCCACAGCAGAAGCGUUCACGUCGCGGCCCCUGUCAGAUUCGGGUGAAUCUGCGAAAUCUGCUGU | 0.958
GGGGGCCACAGCAGAAGCGUUCACGUCGCGGCCCCUGUCAGAUUCGGGUGAAUCUGCGAACUCUGCUGU | 0.941
GGGGGCCACAGCAGAAGCGUUCACGUCGCGGCCCCUGUCAGAUUCGGGUGAAUCUGCGAAGUCUGCUGU | 0.878

Variant | self-cleavage
GGGGGCCACAGCAGAAGCGUUCACGUCGCGGCCCCUGUCAGAUUCGGGUGAAUCUGCGAAUACUGCUGU | 0.948
GGGGGCCACAGCAGAAGCGUUCACGUCGCGGCCCCUGUCAGAUUCGGGUGAAUCUGCGAAUCCUGCUGU | 0.993
GGGGGCCACAGCAGAAGCGUUCACGUCGCGGCCCCUGUCAGAUUCGGGUGAAUCUGCGAAUGCUGCUGU | 0.877
GGGGGCCACAGCAGAAGCGUUCACGUCGCGGCCCCUGUCAGAUUCGGGUGAAUCUGCGAAUUCAGCUGU | 0.916
GGGGGCCACAGCAGAAGCGUUCACGUCGCGGCCCCUGUCAGAUUCGGGUGAAUCUGCGAAUUCCGCUGU | 0.927
GGGGGCCACAGCAGAAGCGUUCACGUCGCGGCCCCUGUCAGAUUCGGGUGAAUCUGCGAAUUCGGCUGU | 0.885
GGGGGCCACAGCAGAAGCGUUCACGUCGCGGCCCCUGUCAGAUUCGGGUGAAUCUGCGAAUUCUGCAGU | 0.99
GGGGGCCACAGCAGAAGCGUUCACGUCGCGGCCCCUGUCAGAUUCGGGUGAAUCUGCGAAUUCUGCGGU | 0.995
GGGGGCCACAGCAGAAGCGUUCACGUCGCGGCCCCUGUCAGAUUCGGGUGAAUCUGCGAAUUCUGCUGC | 1.07
GGGGGCCACAGCAGAAGCGUUCACGUCGCGGCCCCUGUCAGAUUCUAGUGAAUCUGCGAAUUCUGCUGU | 1
GGGGGCCACAGCAGAAGCGUUCACGUCGCGGCCCCUGUCAGAUUCUAGUGGAUCUGCGAAUUCUGCUGU | 1.02
GGGGGCCACAGCAGAAGCGUUCACGUCGCGGCCCCUGUCAGAUUCUAGUGUAUCUGCGAAUUCUGCUGU | 0.953
GGGGGCCACAGCAGAAGCGUUCACGUCGCGGCCCCUGUCAGAUUCUAGUGAGUCUGCGAAUUCUGCUGU | 0.969
GGGGGCCACAGCAGAAGCGUUCACGUCGCGGCCCCUGUCAGAUUCUAGUGAAUCUGCGUAUUCUGCUGU | 0.872
GGGGGCCACAGCAGAAGCGUUCACGUCGCGGCCCCUGUCAGAUUCUAGUGAAUCUGCGAUUUCUGCUGU | 0.475
GGGGGCCACAGCAGAAGCGUUCACGUCGCGGCCCCUGUCAGAUUCUAGUGAAUAUGCGAAUUCUGCUGU | 0.961
GGGGGCCACAGCAGAAGCGUUCACGUCGCGGCCCCUGUCAGAUUCUAGUGAAUGUGCGAAUUCUGCUGU | 0.979
GGGGGCCACAGCAGAAGCGUUCACGUCGCGGCCCCUGUCAGAUUCUAGUGAAUCUGAGAAUUCUGCUGU | 0.347
GGGGGCCACAGCAGAAGCGUUCACGUCGCGGCCCCUGUCAGAUUCUAGUGAAUCUGUGAAUUCUGCUGU | 0.321
GGGGGCCACAGCAGAAGCGUUCACGUCGCGGCCCCUGUCAGAUUCUAGUGAAUCUGCGAAUUAUGCUGU | 0.898
GGGGGCCACAGCAGAAGCGUUCACGUCGCGGCCCCUGUCAGAUUCUAGUGAAUCUGCGAAUUCUGGUGU | 0.953
GGGGGCCACAGCAGAAGCGUUCACGUCGCGGCCCCUGUCAGAUUCUAGUGAAUCUGCGAAUUCUGUUGU | 0.959
GGGGGCCACAGCAGAAGCGUUCACGUCGCGGCCCCUGUCAGAUUCUAAUGAAUCUGCGAAUUCUGCUGU | 1.03
GGGGGCCACAGCAGAAGCGUUCACGUCGCGGCCCCUGUCAGAUUCUACUGAAUCUGCGAAUUCUGCUGU | 1.03
GGGGGCCACAGCAGAAGCGUUCACGUCGCGGCCCCUGUCAGAUUCUAGUUAAUCUGCGAAUUCUGCUGU | 1.01
GGGGGCCACAGCAGAAGCGUUCACGUCGCGGCCCCUGUCAGAUUCUAGUGAAUCUACGAAUUCUGCUGU | 1

Variant | self-cleavage
GGGGGCCACAGCAGAAGCGUUCACGUCGCGGCCCCUGUCAGAUUCUAGUGAAUCUUCGAAUUCUGCUGU | 1.01
GGGGGCCACAGCAGAAGCGUUCACGUCGCGGCCCCUGUCAGAUUCUAGUGAAUCUGCAAAUUCUGCUGU | 0.96
GGGGGCCACAGCAGAAGCGUUCACGUCGCGGCCCCUGUCAGAUUCUAGUGAAUCUGCCAAUUCUGCUGU | 0.951
GGGGGCCACAGCAGAAGCGUUCACGUCGCGGCCCCUGUCAGAUUCUAGUGAAUCUGCGAAUUCUCCUGU | 0.79
GGGGGCCACAGCAGAAGCGUUCACGUCGCGGCCCCUGUCAGAUUCUAGUGAAUCUGCGAAUUCUUCUGU | 0.858
GGGGGCCACAGCAGAAGCGUUCACGUCGCGGCCCCUGUCAGAUUCUAGUGAAUCUGCGAAUUCUGCUAU | 1.01
GGGGGCCACAGCAGAAGCGUUCACGUCGCGGCCCCUGUCAGAUUCUAGUGAAUCUGCGAAUUCUGCUUU | 1.01
GGGGGCCACAGCAGAAGCGUUCACGUCGCGGCCCCUGUCAGAUUCUAGGGAAUCUGCGAAUUCUGCUGU | 0.994
GGGGGCCACAGCAGAAGCGUUCACGUCGCGGCCCCUGUCAGAUUCUAGUGAAACUGCGAAUUCUGCUGU | 1.02
GGGGGCCACAGCAGAAGCGUUCACGUCGCGGCCCCUGUCAGAUUCUAGUGAACCUGCGAAUUCUGCUGU | 0.978
GGGGGCCACAGCAGAAGCGUUCACGUCGCGGCCCCUGUCAGAUUCUAGUGAAGCUGCGAAUUCUGCUGU | 0.971
GGGGGCCACAGCAGAAGCGUUCACGUCGCGGCCCCUGUCAGAUUCUAGUGAAUCCGCGAAUUCUGCUGU | 0.966
GGGGGCCACAGCAGAAGCGUUCACGUCGCGGCCCCUGUCAGAUUCUAGUGAAUCGGCGAAUUCUGCUGU | 0.91
GGGGGCCACAGCAGAAGCGUUCACGUCGCGGCCCCUGUCAGAUUCUAGUGAAUCUGCGAACUCUGCUGU | 0.887
GGGGGCCACAGCAGAAGCGUUCACGUCGCGGCCCCUGUCAGAUUCUAGUGAAUCUGCGAAGUCUGCUGU | 0.968
GGGGGCCACAGCAGAAGCGUUCACGUCGCGGCCCCUGUCAGAUUCUAGUGAAUCUGCGAAUACUGCUGU | 0.976
GGGGGCCACAGCAGAAGCGUUCACGUCGCGGCCCCUGUCAGAUUCUAGUGAAUCUGCGAAUCCUGCUGU | 0.933
GGGGGCCACAGCAGAAGCGUUCACGUCGCGGCCCCUGUCAGAUUCUAGUGAAUCUGCGAAUUCAGCUGU | 0.958
GGGGGCCACAGCAGAAGCGUUCACGUCGCGGCCCCUGUCAGAUUCUAGUGAAUCUGCGAAUUCCGCUGU | 0.974
GGGGGCCACAGCAGAAGCGUUCACGUCGCGGCCCCUGUCAGAUUCUAGUGAAUCUGCGAAUUCUGCCGU | 0.976
GGGGGCCACAGCAGAAGCGUUCACGUCGCGGCCCCUGUCAGAUUCUAGUGAAUCUGCGAAUUCUGCGGU | 1.06
GGGGGCCACAGCAGAAGCGUUCACGUCGCGGCCCCUGUCAGAUUCUAGUGAAUCUGCGAAUUCUGCUGA | 1.03
GGGGGCCACAGCAGAAGCGUUCACGUCGCGGCCCCUGUCAGAUUCUAGUGAAUCUGCGAAUUCUGCUGG | 1.05
GGGGGCCACAGCAGAAGCGUUCACGUCGCGGCCCCUGUCAGAUUCUCGUGAAUCUGCGAAUUCUGCUGU | 1
GGGGGCCACAGCAGAAGCGUUCACGUCGCGGCCCCUGUCAGAUUCUCGUGCAUCUGCGAAUUCUGCUGU | 1.04
GGGGGCCACAGCAGAAGCGUUCACGUCGCGGCCCCUGUCAGAUUCUCGUGACUCUGCGAAUUCUGCUGU | 0.946
